Assay: label from the status in PepcDB records
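Further: failed if final PepcDB status was selected cloned or expressed and not failed if soluble or beyond.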

MQASSNGTTHTKRVRIRPFQKGIRRKRKDLMTEAENRCRLVLIVPDIADADEQARIVADALKGGDVASVIVPQYGLDDGAFQKHAEKLVPVIQDAGAAALIAGDSRVAGRAKADGLHITGNAQALSEAIDKHAPKLIVGGGNASDRHNALEIGEVRPDYIFFGKLDGDIKPEAHPKNLALGEWWASMIEIPCIVMAGTDPASALAVAETRAEFVALRLAVFGEPGRAPSIVAEINALLDEKAPRFED
protein production: failed

MTAAPAALHDRALHLLQTIWGYPAFRGVQGEIVQQVAEGGNALVLMPTGGGKSLCYQLPSLLRPGTGIVVSPLIALMKDQVDTLRQNGVRAAFLNSTLLPHEAREVEDALLRGDLDLLYVAPERLLMPRTLDLLERAPVALFAIDEAHCVSQWGHDFRPEYQQLSVLAERFPELPRVALTATADERTRADIKSVLRLEDAPQFVSSFDRPNIQYRVGLKDSPKTQLLHFIREEHPGDAGIVYCLSRKSVEETAKWLQAQGIDALAYHAGLSSTERNNVQERFLNEEGVIVCATVAFGMGIDKPNVRFVAHLDLPKSMEGYYQETGRAGRDGLPSTAWMVYGLSDVVNVRRMLAQSDAPEEVKRVEASKLDALLTYCEAATCRRQVLLHYFGEELSEPCGNCDVCLNPPRVRDLTREAQMALSATIRTGNRFGAAHLTDVLLGRETDKVLAQGHHQLPTFGVGKEHDEKLWRSVLRQLVSLGYLSADDHFGLRATGKSRGILKEGQKLLLREDTLLPGAGKSKRDRASASRAALDSHDAPLFEALRAWRLQKAKELSLPPYTIFHDATLKTIAELRPGSHATLGTVSGVGGRKLAAYGDEVLQVVRDSSGGGQAGPENLLDSPAFDPAVRGARNNNAVLDVLGSKGELQPQPKPAHPGVLGALRELRRTLAAEQGRSLSWVFPEATIDELARKLPTRSEELKDVFGLGGQRIQAFGDRILATIRAELTGGAPSPAPSAPAALFDEAVPPAPNADLSEALRELRRELMKETGYSAFVVFTNATLEALAARQPRTLAELAEVPGLGEKRIEAYGERILDAINTVLDG
protein production: failed

MEKCSRETLLFIFITISSVATSTSTWMPMDGNYGASYCLSWRLAVETNNVRAWRIVPLQCLRYVEVYMLAGQYDRDVQLTVDQIKVYLNEIILPGDGMDAWILDVDDTCFSNVFYYRLKRYGCDPYDPTGFRTWAMKGESPAIQPVLELFYKLIETGFKVFLVTGRDEETLRQATLENLHNQGFTGYERLIMRTADNKRQSATTYKTRIRKEMMEEGYRIWGNVGDQWSDLQGEYSGDRTFKIPNPMYFVP
protein production: failed

MDSGRLAVIALGGNAIAGPGMDVSVESQTAAVKRASSIIADVLADGWRSVITHGNGPQVGYLSEAFEALPPERPRQPLYIATAMTQAWIGLLLKHSLEEELRRRGLNVLVPVVISRVLVDVSDPSFNNPSKPVGPIYGREEAEELSRRYGWVFKRDPRGGFRRVVPSPRPVSIVDRDLIAEASAESPAVVALGGGGVPVVERPGGVLEPVEAVVDKDLASSLLATQLNADLLVILTDVPGVAVNYGREGERWLRRAAASELKKYLREGHFPPGSMGPKVEAAISFVERTGKPAVIGSLEEARQVLSLQAGTVVMLG
protein production: not failed

MGCLYSKGNVHFSIDDEIYDIKETRKQQQKEKEKEEEEKKLRPSSTPKVEHTWPSKLELSLQHLSQKTQNARKIQAWWRGTLVRRSLLRAALSAWIIQSWWRKILAKRQEKNRLIILHLMAQETRACVLIQSWVRMLKIRQNYCRLCYATRVIQASWRWYNCRTRGFFQGSYELVGNKLRLRLDIFLGSQVCRISDCISLPIKN
protein production: failed

MHIAIIGAAGMVGRKLTQRLVKDGSLGGKPVEKFTLIDVFQPEAPAGFSGAVDARAADLSAPGEAEKLVEARPDVIFHLAAIVSGEAELDFDKGYRINLDGTRYLFDAIRIANGKDGYKPRVVFTSSIAVFGAPLPYPIPDEFHTTPLTSYGTQKAICELLLSDYSRRGFFDGIGIRLPTICIRPGKPNAAASGFFSNILREPLVGQEAVLPVPESIRHWHASPRSAVGFLIHGAMIDVEKVGPRRNLSMPGLSATVGEQIEALRKVAGEKAVALIRREPNEMIMRMCEGWAPGFEAKRARELGFTAESSFEEIIQVHIEDELGGSLK
protein production: not failed

MSEWMKKSPLEWEDYVYKEVRVIACEKEYKGWLLTTDPVSANIVLVNFLEDGRLSVTGIMGHSVQTVETISEGDHRVREKLMHVFASGDCKGYSPEDLEEKRTSLKKWLEKNHIPVTEQGDAQRTLCVAGVLTIDPPYAPENCSSSNEIILSRIQDLIQGHLSASQ
protein production: failed

MDSSLSQKFTLAYASLLGVGGLMGYLKRGSKISLVAGGGSAALFYYVYTELPGNPVLASSIGIVGSAALTGMMGSRYLRTRKVVPAGLVSVVSLVMTGAYLHGLIRSS
protein production: failed

MIRQRSVIAKRAYIDEGVYIGNVVRIGEESMIHRRSRIGSGARIGGSVCIGVYCRIDGSVRIGQHADIGEWVNIDGHARIGNFARIGEWSRIGGRANIAAHVVLEKQSIIHSETCIQDASKLEHHHHHH
protein production: failed

MPSDNTYIRFRQQQRDPLHVNSPVSAGNISGVQGSGSRHPPSPPTPTTQPSVNHSDAQAERLNNLTLDELLDSPGRAGLTRLDPKRPLATLWFDDDSTVAATVRSIFERDFKEPHANWSQTSKATIDRWYETFAQVYNWDRSINKRVRVEFEAKLNSRMSDQVSRWKGNWKEKGDEAKPKWIDPEGIYKHCSGQTSYKARARKRCEKTGETTPDFLELLDETHRKADGTFIDGKSEEIYKKVTSRIEEEESHMCSGDNPESTGSCGLSVHAKNKIFVEVAPRKKGRIYGVGSLQFEAFSAHSGSTLPSDDPVILSQKLAAAEACIQSQAEKINSFDILFDYLADKDPALAAILRRGSSTQTGPASANEAPVATAPEQQVANEETAAATLANLATGSSPSSIF
protein production: failed

MKILLIGGSGNIGRAIAAELSGRHEIIAAGRHHGDVRVDIEDEQSIAAMYRQLPRLDAVAVATGGRNGHVGPLAEMNAERYRVGLDAKLMGQVNLVLRGLDKVADGGSFTLVGGAWQPQAIVPLLSNVYMANAALEGFVNAAAVELPRRLRINLVSPLLLAESEAEYGPLFRGVPLVEARQVARAYSLSIEGAQTGQTYRLGRLDLEHHHHHH
protein production: not failed

MDKALTNRVIILSFDCLSALDFPILQKLPHFQSLIKKGTVVEKVEPIYPSVTYPSHSTIVTGNYPNKHGVVSNTLLQPGRESPDWHWYRKSIKGTTLYDEAHKANLTTAALLWPVTGRANIDYNLPEIFPNRPWQNQVLVSLFSGSPLYQLDLNRRFGHIRNGLSQPELDDFVLASAVHTIQTKKPNVMFVHFTDLDTQRHYHGFESKETIAAIHRHDERLGQIIQALKDSDLYEESTIIALGDHSALSENKAIQLNVLFHQKGLISVNSKGNLVDWKVYCQSCDGSAYVYVKDKNDTDTIREVQLLLEELLQHKQNGIEFILHDEDAKECGADGNCLFMLEAREGYYFTENYTGDFIKEITEKDVTPSKKYTFGTHGYSPTKPNYETIFIAAGKGIKSGVTIPYMRLIDEGPTIARLLGLHLGETDGSIVEDLLQL
protein production: failed

MMIARTLSIFIGTLLLATCSIPTRLNIPTIAITDHPKYKLLLILIDGLRADALEHGQAPQLARLASDGVHARWMTPSYPALTLPNAYTLITGLRPDHHGIVHNTMEDPLLGAFESERQEAISNGRWWGGEPIWVSAEHAGIRSATFLWPGSEASIAGTRPSRWYAYNKHISADTQITQALRWLNERGPDAPRLVILRFEQVNTAGDNFGPDSPQYAAAVNMIDSAIGRLIDSLRQHGKLTDTDVIVVSDQGIAPIPGDHAVPLERIVQLSDVHVVSDGQVLGITPLPGHESKVEAMVLGAHATYDCWRKQALPTHWHYGTHPRIPNIVCQMHEGWNALSAAQITKRNPLQMGGSSGFDPMLPSMRAVFLANGPSFMPNLLLNPINNVDIYPLLARLLGIAMAPNDGNPRALLQALRTSNTANGYTYSKRNALHLEHHHHHH
protein production: failed

MTEQDIYKLLADGERVTLECKKAQNGVPNSLWETYSAFANTNGGILLLGVYENVAEKDSLMRFTITGVEDADKIRKDLWNTINSREKVNVNLLHDEDVQTISVNGKEVIAINVPRADYNLRPVYINNNLMRGTYRRNHEGDYHCTEQMIKMMVRDAYEDGNDRMFLEYYTMDDIDIPTLEGYRVMFKTNNPEHIWNSLDHKEFLMQLGGYVVNRKDGTEGLTIAGLLMFGKGLPVRERFDYLRMDYIDKSNLIGDQRYSDRLTYDGTWENNLFNFIRMVVPRLTRDIPRPFQMDGIIRKDDTPQHKAVREAFTNMIIHADLMLNGLLRVEKYDDRFVLSNPGLLKLPVEQIYAGGESKARNQRMQHMLRMIGYGENLGSGFPLILSAWNEKHWLKPELVEQPELMQVKLILHIENRVYVTKDVTKDVTKELTERQQIILEFMQADGTITISEMSQKTNVTERTIKRDIESLTEKGILSREGGRKEGRWVIRKILEHHHHHH
protein production: not failed

MDKRIVGTNAGKVWCALKEIGEISIPELARRLNLSVESTALAAGWLARENKICIQRKNGLIALSDESAFPFSFG
protein production: failed

MSMQEMVTISIVTYNSRYIFNVLDQLKAELGTDSIYDIHIYDNHSETAYLEKLTTYEPFITIHRAEENQGFGHGHNQVLFNASTKYAIIFNPDVLVTKDVLDRLLNRIKIDKNIAVVSPKVLNEDGTTQYLVRQKLDVFDYMLRFIPFQFVKKIFDKRLSIYECRDLSDTETTDIKMGSGCFMLIDREKFVEIGGFDERFFMYFEDNDLCLRFGKAGYRILYTPFETVVHMYEKGAHKSRKLFKIFMQSMGKFFNKWGWRFFLEHHHHHH
protein production: not failed

MGSGAGNFLKVLLRNFDVLAGPVVSLVYPLYASVQAIETQSHADDKQWLTYWVLYSLLTLIELTFAKLIEWLPIWSYMKLILTCWLVIPYFSGAAYVYEHFVRPVFVNPRSINIWYVPKKMDIFRKPDDVLTAAEKYIAENGPDAFEKILSRADKSKRYNKHEYESYETMYGEGYQY
protein production: failed

MALLLAALLVLLTALLAVRLPAWASALLLGLLAGSGYALGVRSEALPAGALLLLGALAAPRLYLGPRRRKRPERRPPGPKRPAAAGTTAEREALSQRYEILEKVGLGGMATVYKAKDRKTGRLVALKVPQERFLGDPRFVRRFHREAEVLTRMDHPNIVKVYDHGQVEGVHYIAMEFLDGEGLDKLIEERRLSLRQAAAILARVADALKHIHAQGIVHRDIKPGNIMVLKGALREDGVDPRGVRLMDFGIAAGRVLTRLTITGARIGTPVYMSPEQAKGQKLDHRSDIYSLGIVLYEALTGQPPFTGGYETVIHQQIFQMPTPPKQLRPEIPQALSDLVLRMLEKDPAKRPGLDEVVRVLEGPWEEERELPEAQYLLVAVEAKKGAVRLLDLEGTPARLLSGVGSGAGQFPSPPLAVAADPEGGIWVAVFQHGERLVHRLSPQGEVLLSTGPYGMKPGEFLLPVGLAVLEDQVFVLDGETATVSRLDLAGRYQGRFGGQGLGRGTFQDPKALVAAEGHLFVLDYGNRQVQRLTPEGGYLSRYAFRRSREDGALRLLGGVGVGEGRLYLYDVEAVKVRVLDLSGRLLASYPLPLLEGEDRMSLVELLPVGRVLYAARRGSSRIHRISLDTGEALPPLEVYAPVRGLALWRRTP
protein production: failed
